Reference: patent publication US20060153853A1

Assays:
[1] = molecular target: IGF-II (insulin-like growth factor II) (UniProt P01344); assay: method not stated in the legend (presumably BIAcore)
[2] = molecular target: IGF-I (insulin-like growth factor I) (UniProt P05019); assay: SPR (BIAcore), IGF-I amine-coupled to CM5 chip, IGFBP-2 as analyte, Langmuir 1:1 fit
[3] = molecular target: IGF-I (insulin-like growth factor I) (UniProt P05019); assay: SPR (BIAcore) on immobilised IGF-I; text summing up Table 2
[4] = molecular target: IGF-I (insulin-like growth factor I) (UniProt P05019); assay: SPR (BIAcore), IGF-I amine-coupled to CM5 chip; ratio against hIGFBP-2
[5] = molecular target: IGF-II (insulin-like growth factor II) (UniProt P01344); assay: SPR (BIAcore) on immobilised IGF-II; text summing up Table 3
[6] = molecular target: IGF-I (insulin-like growth factor I) (UniProt P05019); assay: method not stated in the legend (presumably BIAcore)
[7] = molecular target: IGF-II (insulin-like growth factor II) (UniProt P01344); assay: SPR (BIAcore), IGF-II amine-coupled to CM5 chip, IGFBP-2 as analyte, Langmuir 1:1 fit
[8] = molecular target: IGF-II (insulin-like growth factor II) (UniProt P01344); assay: SPR (BIAcore), IGF-II amine-coupled to CM5 chip; ratio against hIGFBP-2

Sequence of IGF-I (insulin-like growth factor I) (P05019 49-118 limits assumed): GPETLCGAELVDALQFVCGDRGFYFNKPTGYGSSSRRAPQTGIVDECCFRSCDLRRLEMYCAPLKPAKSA
Sequence of IGF-II (insulin-like growth factor II) (P01344 25-91 limits assumed): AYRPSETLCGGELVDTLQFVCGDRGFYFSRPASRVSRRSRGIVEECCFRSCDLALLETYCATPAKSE

Substance | fold lower affinity (reference not named, presumably native IGFBP-2) [1] | Kd [2] | koff [2] | kon [2] | fold decrease in affinity against native hIGFBP-2 [3] | Rel. KD (KD of hIGFBP-2/KD of hIGFBP-2 mutant) [4] | fold decrease in affinity against native hIGFBP-2 [5] | fold lower affinity (reference not named, presumably native IGFBP-2) [6] | Kd [7] | koff [7] | kon [7] | Rel. KD (KD of hIGFBP-2/KD of hIGFBP-2 mutant) [8]
Des (114-170) K180A K181A hIGFBP-2 (from UniProt P18065 36-113; P18065 207-325) | 2 fold |  |  |  |  |  |  |  |  |  |  | 
Des(114-170)His hIGFBP-2 (from UniProt P18065 36-113; P18065 207-325) |  | 3.63 nM | 0.000425 s⁻¹ | 117000 M⁻¹ s⁻¹ | 5 fold | 0.26 | 2 fold | 2 fold | 1.14 nM | 0.00013 s⁻¹ | 114000 M⁻¹ s⁻¹ | 0.51
